# B1: Multidrug resistance-associated protein 1 (Homo sapiens) (protein)
# chain: MALRGFCSADGSDPLWDWNVTWNTSNPDFTKCFQNTVLVWVPCFYLWACFPFYFLYLSRHDRGYIQMTPLNKTKTALGFLLWIVCWADLFYSFWERSRGIFLAPVFLVSPTLLGITMLLATFLIQLERRKGVQSSGIMLTFWLVALVCALAILRSKIMTALKEDAQVDLFRDITFYVYFSLLLIQLVLSCFSDRSPLFSETIHDPNPCPESSASFLSRITFWWITGLIVRGYRQPLEGSDLWSLNKEDTSEQVVPVLVKNWKKECAKTRKQPVKVVYSSKDPAQPKESSKVDANEEVEALIVKSPQKEWNPSLFKVLYKTFGPYFLMSFFFKAIHDLMMFSGPQILKLLIKFVNDTKAPDWQGYFYTVLLFVTACLQTLVLHQYFHICFVSGMRIKTAVIGAVYRKALVITNSARKSSTVGEIVNLMSVDAQRFMDLATYINMIWSAPLQVILALYLLWLNLGPSVLAGVAVMVLMVPVNAVMAMKTKTYQVAHMKSKDNRIKLMNEILNGIKVLKLYAWELAFKDKVLAIRQEELKVLKKSAYLSAVGTFTWVCTPFLVALCTFAVYVTIDENNILDAQTAFVSLALFNILRFPLNILPMVISSIVQASVSLKRLRIFLSHEELEPDSIERRPVKDGGGTNSITVRNATFTWARSDPPTLNGITFSIPEGALVAVVGQVGCGKSSLLSALLAEMDKVEGHVAIKGSVAYVPQQAWIQNDSLRENILFGCQLEEPYYRSVIQACALLPDLEILPSGDRTEIGEKGVNLSGGQKQRVSLARAVYSNADIYLFDDPLSAVDAHVGKHIFENVIGPKGMLKNKTRILVTHSMSYLPQVDVIIVMSGGKISEMGSYQELLARDGAFAEFLRTYASTEQEQDAEENGVTGVSGPGKEAKQMENGMLVTDSAGKQLQRQLSSSSSYSGDISRHHNSTAELQKAEAKKEETWKLMEADKAQTGQVKLSVYWDYMKAIGLFISFLSIFLFMCNHVSALASNYWLSLWTDDPIVNGTQEHTKVRLSVYGALGISQGIAVFGYSMAVSIGGILASRCLHVDLLHSILRSPMSFFERTPSGNLVNRFSKELDTVDSMIPEVIKMFMGSLFNVIGACIVILLATPIAAIIIPPLGLIYFFVQRFYVASSRQLKRLESVSRSPVYSHFNETLLGVSVIRAFEEQERFIHQSDLKVDENQKAYYPSIVANRWLAVRLECVGNCIVLFAALFAVISRHSLSAGLVGLSVSYSLQVTTYLNWLVRMSSEMETNIVAVERLKEYSETEKEAPWQIQETAPPSSWPQVGRVEFRNYCLRYREDLDFVLRHINVTINGGEKVGIVGRTGAGKSSLTLGLFRINESAEGEIIIDGINIAKIGLHDLRFKITIIPQDPVLFSGSLRMNLDPFSQYSDEEVWTSLELAHLKDFVSALPDKLDHECAEGGENLSVGQRQLVCLARALLRKTKILVLDEATAAVDLETDDLIQSTIRTQFEDCTVLTIAHRLNTIMDYTRVIVLDKGEIQEYGAPSDLLQQRGLFYSMAKDAGLV
# Substrate: CCC(CSC[C@@H](NC(=O)CC[C@H](N)C(=O)O)C(=O)NCC(=O)O)C(=O)c1ccc(OCC(=O)O)c(Cl)c1Cl
# Assay: TP_TRANSPORTER: uptake in membrane vesicles from S1(MRP) cells
# Assay type: functional, cell membranes, Membrane vesicle
protein,measurement,value
B1,Km,5 µM

# Reference: ChEMBL document CHEMBL2074303, “Transport of the glutathione conjugate of ethacrynic acid by the human multidrug resistance protein MRP” (FEBS Lett, 1996)
